Results reported in patent US20220033501A1.

Legend:
[1] = molecular target: murine TIM-3 extracellular domain protein with hFc tag (mTIM-3-hFc) (mouse) (UniProt Q8VIM0); assay: ELISA, coated mouse TIM-3 ECD protein, 0.0001 nM antibody
[2] = molecular target: murine TIM-3 extracellular domain protein with hFc tag (mTIM-3-hFc) (mouse) (UniProt Q8VIM0); assay: ELISA, coated mouse TIM-3 ECD protein, 0.0667 nM antibody
[3] = molecular target: monkey TIM-3 extracellular domain protein with hFc tag (cTIM-3-hFc) (monkey); assay: ELISA, coated monkey TIM-3 ECD protein, 6.6667 nM antibody
Sequence of monkey TIM-3 extracellular domain protein with hFc tag (cTIM-3-hFc) (monkey) (chain, as listed by the source): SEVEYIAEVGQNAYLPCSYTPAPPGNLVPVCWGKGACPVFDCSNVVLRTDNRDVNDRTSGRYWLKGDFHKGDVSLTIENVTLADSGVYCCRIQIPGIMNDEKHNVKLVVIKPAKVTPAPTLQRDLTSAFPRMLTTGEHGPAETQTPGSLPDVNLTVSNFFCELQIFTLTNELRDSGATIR

[4] = molecular target: monkey TIM-3 extracellular domain protein with hFc tag (cTIM-3-hFc) (monkey); assay: ELISA, coated monkey TIM-3 ECD protein, 0 nM antibody
[5] = molecular target: monkey TIM-3 extracellular domain protein with hFc tag (cTIM-3-hFc) (monkey); assay: ELISA, coated monkey TIM-3 ECD protein, 0.0667 nM antibody
[6] = molecular target: murine TIM-3 extracellular domain protein with hFc tag (mTIM-3-hFc) (mouse) (UniProt Q8VIM0); assay: ELISA, coated mouse TIM-3 ECD protein, 0.0007 nM antibody
[7] = molecular target: human TIM-3 on CHOK1 stable cell line (CHOK1-hTIM-3) (human) (UniProt Q8TDQ0); assay: FACS, CHOK1-hTIM-3 cells, 8 nM antibody
Sequence of human TIM-3 on CHOK1 stable cell line (CHOK1-hTIM-3) (human) (Q8TDQ0 22-301 limits assumed): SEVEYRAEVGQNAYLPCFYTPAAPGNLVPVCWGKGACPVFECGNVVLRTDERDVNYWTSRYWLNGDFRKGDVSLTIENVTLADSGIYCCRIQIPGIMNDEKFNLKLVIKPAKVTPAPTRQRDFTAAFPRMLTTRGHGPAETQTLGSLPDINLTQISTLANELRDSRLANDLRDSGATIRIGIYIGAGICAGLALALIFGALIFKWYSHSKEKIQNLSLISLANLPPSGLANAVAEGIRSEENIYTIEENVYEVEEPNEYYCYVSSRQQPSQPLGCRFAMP

[8] = molecular target: human TIM-3 on CHOK1 stable cell line (CHOK1-hTIM-3) (human) (UniProt Q8TDQ0); assay: FACS, CHOK1-hTIM-3 cells, 1.6 nM antibody
[9] = molecular target: monkey TIM-3 on CHOK1 stable cell line (CHOK1-cTIM-3) (monkey); assay: FACS, CHOK1-cTIM-3 cells, 1.6 nM antibody
Sequence of monkey TIM-3 on CHOK1 stable cell line (CHOK1-cTIM-3) (monkey) (chain, as listed by the source limits assumed): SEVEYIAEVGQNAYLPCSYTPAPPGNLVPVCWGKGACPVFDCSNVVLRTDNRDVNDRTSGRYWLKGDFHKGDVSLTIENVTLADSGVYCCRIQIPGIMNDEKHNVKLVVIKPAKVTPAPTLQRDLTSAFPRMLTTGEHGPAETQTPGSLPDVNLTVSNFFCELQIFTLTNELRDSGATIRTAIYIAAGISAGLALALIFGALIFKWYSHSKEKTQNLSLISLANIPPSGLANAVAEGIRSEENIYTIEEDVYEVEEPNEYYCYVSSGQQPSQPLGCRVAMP

[10] = molecular target: monkey TIM-3 on CHOK1 stable cell line (CHOK1-cTIM-3) (monkey); assay: FACS, CHOK1-cTIM-3 cells, 0.32 nM antibody
[11] = molecular target: human TIM-3 extracellular domain protein with hFc tag (hTIM-3-hFc) (human) (UniProt Q8TDQ0); assay: ELISA, coated human TIM-3 ECD protein, 6.6667 nM antibody
Sequence of human TIM-3 extracellular domain protein with hFc tag (hTIM-3-hFc) (human) (Q8TDQ0 22-200): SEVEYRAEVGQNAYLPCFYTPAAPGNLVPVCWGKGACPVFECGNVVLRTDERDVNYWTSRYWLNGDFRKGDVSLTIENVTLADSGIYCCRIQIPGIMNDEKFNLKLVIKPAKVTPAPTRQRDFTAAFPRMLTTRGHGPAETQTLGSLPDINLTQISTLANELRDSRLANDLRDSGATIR

[12] = molecular target: human TIM-3 extracellular domain protein with hFc tag (hTIM-3-hFc) (human) (UniProt Q8TDQ0); assay: ELISA, coated human TIM-3 ECD protein, 0.0667 nM antibody
[13] = molecular target: monkey TIM-3 on CHOK1 stable cell line (CHOK1-cTIM-3) (monkey); assay: FACS, CHOK1-cTIM-3 cells, 8 nM antibody
[14] = molecular target: monkey TIM-3 on CHOK1 stable cell line (CHOK1-cTIM-3) (monkey); assay: FACS, CHOK1-cTIM-3 cells, 0 nM antibody
[15] = molecular target: human TIM-3 extracellular domain protein with hFc tag (hTIM-3-hFc) (human) (UniProt Q8TDQ0); assay: ELISA, coated human TIM-3 ECD protein, 0.0007 nM antibody
[16] = molecular target: murine TIM-3 extracellular domain protein with hFc tag (mTIM-3-hFc) (mouse) (UniProt Q8VIM0); assay: ELISA, coated mouse TIM-3 ECD protein, 66.667 nM antibody
[17] = molecular target: monkey TIM-3 extracellular domain protein with hFc tag (cTIM-3-hFc) (monkey); assay: ELISA, coated monkey TIM-3 ECD protein, 0.0007 nM antibody
[18] = molecular target: human TIM-3 extracellular domain protein with hFc tag (hTIM-3-hFc) (human) (UniProt Q8TDQ0); assay: FACS, blocking of hTIM-3-hFc binding to phosphatidylserine on apoptotic Jurkat cells, 22.222 nM antibody
[19] = molecular target: murine TIM-3 extracellular domain protein with hFc tag (mTIM-3-hFc) (mouse) (UniProt Q8VIM0); assay: ELISA, coated mouse TIM-3 ECD protein, 6.6667 nM antibody
[20] = molecular target: human TIM-3 extracellular domain protein with hFc tag (hTIM-3-hFc) (human) (UniProt Q8TDQ0); assay: ELISA, coated human TIM-3 ECD protein, 0.0001 nM antibody
[21] = molecular target: murine TIM-3 extracellular domain protein with hFc tag (mTIM-3-hFc) (mouse) (UniProt Q8VIM0); assay: ELISA, coated mouse TIM-3 ECD protein, 0.6667 nM antibody
[22] = molecular target: human TIM-3 extracellular domain protein with hFc tag (hTIM-3-hFc) (human) (UniProt Q8TDQ0); assay: ELISA, coated human TIM-3 ECD protein, 0.6667 nM antibody
[23] = molecular target: human TIM-3 extracellular domain protein with hFc tag (hTIM-3-hFc) (human) (UniProt Q8TDQ0); assay: ELISA, coated human TIM-3 ECD protein, 0.0067 nM antibody
[24] = molecular target: human TIM-3 on CHOK1 stable cell line (CHOK1-hTIM-3) (human) (UniProt Q8TDQ0); assay: FACS, CHOK1-hTIM-3 cells, 0.013 nM antibody
[25] = molecular target: human TIM-3 extracellular domain protein with hFc tag (hTIM-3-hFc) (human) (UniProt Q8TDQ0); assay: FACS, blocking of hTIM-3-hFc binding to phosphatidylserine on apoptotic Jurkat cells, 0 nM antibody
[26] = molecular target: human TIM-3 extracellular domain protein with hFc tag (hTIM-3-hFc) (human) (UniProt Q8TDQ0); assay: FACS, blocking of hTIM-3-hFc binding to phosphatidylserine on apoptotic Jurkat cells, 200 nM antibody
[27] = molecular target: monkey TIM-3 on CHOK1 stable cell line (CHOK1-cTIM-3) (monkey); assay: FACS, CHOK1-cTIM-3 cells, 40 nM antibody
[28] = molecular target: monkey TIM-3 extracellular domain protein with hFc tag (cTIM-3-hFc) (monkey); assay: ELISA, coated monkey TIM-3 ECD protein, 0.0001 nM antibody
[29] = molecular target: TIM-3 protein on human peripheral blood mononuclear lymphocytes (PBMC) (human) (UniProt Q8TDQ0); assay: cell-based or functional assay
Sequence of TIM-3 protein on human peripheral blood mononuclear lymphocytes (PBMC) (human) (Q8TDQ0 22-301 limits assumed): as the sequence (Q8TDQ0 22-301 limits assumed) above

Sequence of murine TIM-3 extracellular domain protein with hFc tag (mTIM-3-hFc) (mouse) (Q8VIM0 other isoform, or with tags, fused parts or gaps): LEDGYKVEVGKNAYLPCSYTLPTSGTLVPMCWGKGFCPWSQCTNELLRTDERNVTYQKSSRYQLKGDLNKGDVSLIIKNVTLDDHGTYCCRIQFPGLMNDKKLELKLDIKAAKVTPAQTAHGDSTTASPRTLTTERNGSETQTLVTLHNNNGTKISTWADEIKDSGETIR

human IgG control (antibody) was tested, and the OD450 [1] was 0.22, the OD450 [2] was 0.21 and the OD450 [3] was 0.18. It also gave an OD450 [4] of 0.13, an OD450 [5] of 0.13 and an OD450 [6] of 0.21. For the same substance, the Mean fluorescence intensity [7] was 4.5, the Mean fluorescence intensity [8] was 3.1 and the Mean fluorescence intensity [9] was 3.2. It also gave a Mean fluorescence intensity [10] of 3.1, an OD450 [11] of 0.08 and an OD450 [12] of 0.07. The Mean fluorescence intensity [13] was 3.7, the Mean fluorescence intensity [14] was 2.9 and the OD450 [15] was 0.07. It also gave an OD450 [16] of 0.73, an OD450 [17] of 0.14 and an Inhibition ratio (%) [18] of -2.8%. The OD450 [19] was 0.3, the OD450 [20] was 0.07 and the OD450 [21] was 0.22. The OD450 [22] was 0.07, the OD450 [23] was 0.07 and the Mean fluorescence intensity [24] was 2.8. For the same substance, the Inhibition ratio (%) [25] was -2.5%, the Inhibition ratio (%) [26] was -7.8% and the Mean fluorescence intensity [27] was 6. For the same substance, the OD450 [28] was 0.13, the IFN-γ production (donor X); antibody 0.1 µg/ml, N = 1 [29] was 2040 pg/mL and the IFN-γ production (donor X); antibody 0.1 µg/ml, N = 2 [29] was 2060 pg/mL. It also gave an IFN-γ production (donor X); antibody 1 µg/ml, N = 1 [29] of 2090 pg/mL, an IFN-γ production (donor X); antibody 1 µg/ml, N = 2 [29] of 2070 pg/mL and an IFN-γ production (donor X); antibody 10 µg/ml, N = 1 [29] of 2030 pg/mL. The IFN-γ production (donor X); antibody 10 µg/ml, N = 2 [29] was 2020 pg/mL, the IFN-γ production (donor X); antibody '0' (4th head as printed), N = 1 [29] was 2260 pg/mL and the IFN-γ production (donor X); antibody '0' (4th head as printed), N = 2 [29] was 1900 pg/mL. The IFN-γ production (donor X); antibody '0' (5th head as printed), N = 1 [29] was 2000 pg/mL and the IFN-γ production (donor X); antibody '0' (5th head as printed), N = 2 [29] was 2320 pg/mL.
